The values below come from paper PMC5116005 (Journal of molecular biology, 2016).

Ends that are not written are not given here.

One assay concerns NtrC1^C oligomer. The experiment in a line: Native PAGE gel binding assay, dye fluorescence visualized at 488 nm. The arrangement: species or system Aquifex aeolicus. Conditions: 0.16 µM Alexa488-σ54(16-41), ADP-BeF3− at 500 µM, native PAGE 4–15%, Typhoon 488 nm.
For assay [1], the target named is T1, NtrC1^C(121–387), central AAA+ ATPase domain of A. aeolicus NtrC1 (A. aeolicus, UniProt O67198 121-387).
T1 sequence (looked up): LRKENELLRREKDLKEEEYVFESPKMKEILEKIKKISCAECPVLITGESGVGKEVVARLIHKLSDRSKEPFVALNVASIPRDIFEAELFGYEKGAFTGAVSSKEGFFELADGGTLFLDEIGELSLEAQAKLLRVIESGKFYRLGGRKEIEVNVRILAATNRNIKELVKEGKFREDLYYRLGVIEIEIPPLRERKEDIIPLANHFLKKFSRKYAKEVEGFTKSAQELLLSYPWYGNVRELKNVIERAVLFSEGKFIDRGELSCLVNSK
The experiment in a line: fluorescence polarisation.

Assay [2] has as its target Alexa488-full length σ^54 (K2C) (UniProt P24255). Description: fluorescence polarisation.

As to “Alexa488-σ^54(16-41): σ54(16-41) with N-terminal Trp-Cys, cysteine derivatized with Alexa Fluor 488 maleimide (WC(Alexa Fluor 488 maleimide)LLLKQDLELLTYQTQELEKLIHEEVL)”, the “Binding to NtrC1^C oligomer on native gel with ADP-BeF3−” value with NtrC1^C oligomer was “bound to NtrC1^C”.

The Kd is the equilibrium constant for the complex coming apart. Read a high Kd as weaker binding. WC(Alexa Fluor 488 maleimide)LLLKQDLELLTYQTQELEKLIHEEVL [Alexa488-σ^54(16-41) (A.a. σ^54(WC-16-41))] came in with a Kd in assay [1] of 1000 nM.

B1: NtrC1^C(121–387), central AAA+ ATPase domain of A. aeolicus NtrC1 (domain or fragment)
chain: LRKENELLRREKDLKEEEYVFESPKMKEILEKIKKISCAECPVLITGESGVGKEVVARLIHKLSDRSKEPFVALNVASIPRDIFEAELFGYEKGAFTGAVSSKEGFFELADGGTLFLDEIGELSLEAQAKLLRVIESGKFYRLGGRKEIEVNVRILAATNRNIKELVKEGKFREDLYYRLGVIEIEIPPLRERKEDIIPLANHFLKKFSRKYAKEVEGFTKSAQELLLSYPWYGNVRELKNVIERAVLFSEGKFIDRGELSCLVNSK
B1 had a dissociation constant Kd in assay [2] of 2000 nM.
